These results are taken from US20140322196A1.

Values joined by “and” are separate entries in the source; they are usually repeats but may differ in a detail not shown here. Equal values may be shown once.

Experiment [1] deals with Hemagglutinin (HA) of Influenza A virus A/Puerto Rico/8/34 H1N1 (PR8 virus) (Influenza A virus A/Puerto Rico/8/34 H1N1) (UniProt P03452). Put plainly: cell-based or functional assay.
The target in experiment [2] is Hemagglutinin (HA) of Influenza A virus A/Parma/5/06 (Wisconsin-like) H3N2 (Influenza A virus A/Parma/05/06 H3N2). Put plainly: cell-based or functional assay.
Experiment [3] concerns the target Hemagglutinin (HA) of Influenza A virus A/Turkey/Italy/2676/99 H7N1 (Influenza A virus A/Turkey/Italy/2676/99 H7N1). Briefly: cell-based or functional assay.
The target of experiment [4] is Hemagglutinin (HA) of Influenza A virus A/Roma-ISS/2/08 (Brisbane-like) (oseltamivir-sensitive) H1N1 (Influenza A virus A/RomaISS/2/08 H1N1). Briefly: cell-based or functional assay.
For experiment [5] the target is unchanged.

For “Lactoferrin from bovine milk (bLf) (from UniProt P24627 20-708)”, the HI titre in experiment [1] turned out to be 3 nM; in experiment [2], 3000 pM; in experiment [3], 93.1 fM; in experiment [4], 6000 pM. For the same substance, the percentage of virus binding to bLf in experiment [5] was 52.9% and 34.1% and 47.2%.
As for “… (SEQ ID NO: 1), bLf C-lobe peptide 418-429”, the HI titre in experiment [1] is 0.7 nM; in experiment [2], 0.7 pM; in experiment [3], 18 fM; in experiment [4], 1.4 pM.
On the same counts, the results for “… (SEQ ID NO: 2), bLf C-lobe peptide 506-522” are 0.35 nM, 0.7 pM, 46.5 fM and 1.4 pM.
